Drawing on US20230365662A1, this text covers OD450nm and Ratio OD(Variant)/OD(WT) for 19 molecules.

B1: KB001 mouse Fab FASEBA VH Y106Q (Fab, V domains shown)
VH: EVQLKQSGPGLVAPSQSLSITCTVSGFSLSIYSVHWVRQPPGKGLEWLGMIWGGGSSDYNSALKSRLSISKDNSKSQVFLKMNSLQTDDTAMYYCARNGNFYAMDQWGQGTSVTVSS
VL: QIVLTQSPAIMSASLGERVTMTCTASSSVSSSFLHWYQQKPGSSPQLWIYSTSNLASGVPARFSGSGSGTSYSLTISSMEAEDAATYYCHQYHHSPYIYTFGGGTKLEIK
B2: KB001 mouse Fab FASEBA VH Y106N (Fab, V domains shown)
VH: EVQLKQSGPGLVAPSQSLSITCTVSGFSLSIYSVHWVRQPPGKGLEWLGMIWGGGSSDYNSALKSRLSISKDNSKSQVFLKMNSLQTDDTAMYYCARNGNFYAMDNWGQGTSVTVSS
VL: QIVLTQSPAIMSASLGERVTMTCTASSSVSSSFLHWYQQKPGSSPQLWIYSTSNLASGVPARFSGSGSGTSYSLTISSMEAEDAATYYCHQYHHSPYIYTFGGGTKLEIK
B3: KB001 mouse Fab FASEBA VH S30Q (Fab, V domains shown)
VH: EVQLKQSGPGLVAPSQSLSITCTVSGFSLQIYSVHWVRQPPGKGLEWLGMIWGGGSSDYNSALKSRLSISKDNSKSQVFLKMNSLQTDDTAMYYCARNGNFYAMDYWGQGTSVTVSS
VL: QIVLTQSPAIMSASLGERVTMTCTASSSVSSSFLHWYQQKPGSSPQLWIYSTSNLASGVPARFSGSGSGTSYSLTISSMEAEDAATYYCHQYHHSPYIYTFGGGTKLEIK
B4: KB001 mouse Fab FASEBA VH S28Y (Fab, V domains shown)
VH: EVQLKQSGPGLVAPSQSLSITCTVSGFYLSIYSVHWVRQPPGKGLEWLGMIWGGGSSDYNSALKSRLSISKDNSKSQVFLKMNSLQTDDTAMYYCARNGNFYAMDYWGQGTSVTVSS
VL: QIVLTQSPAIMSASLGERVTMTCTASSSVSSSFLHWYQQKPGSSPQLWIYSTSNLASGVPARFSGSGSGTSYSLTISSMEAEDAATYYCHQYHHSPYIYTFGGGTKLEIK
B5: KB001 mouse Fab FASEBA VH G26N (Fab, V domains shown)
VH: EVQLKQSGPGLVAPSQSLSITCTVSNFSLSIYSVHWVRQPPGKGLEWLGMIWGGGSSDYNSALKSRLSISKDNSKSQVFLKMNSLQTDDTAMYYCARNGNFYAMDYWGQGTSVTVSS
VL: QIVLTQSPAIMSASLGERVTMTCTASSSVSSSFLHWYQQKPGSSPQLWIYSTSNLASGVPARFSGSGSGTSYSLTISSMEAEDAATYYCHQYHHSPYIYTFGGGTKLEIK
B6: KB001 mouse Fab FASEBA VH S30R (Fab, V domains shown)
VH: EVQLKQSGPGLVAPSQSLSITCTVSGFSLRIYSVHWVRQPPGKGLEWLGMIWGGGSSDYNSALKSRLSISKDNSKSQVFLKMNSLQTDDTAMYYCARNGNFYAMDYWGQGTSVTVSS
VL: QIVLTQSPAIMSASLGERVTMTCTASSSVSSSFLHWYQQKPGSSPQLWIYSTSNLASGVPARFSGSGSGTSYSLTISSMEAEDAATYYCHQYHHSPYIYTFGGGTKLEIK
B7: KB001 mouse Fab FASEBA VH S28G (Fab, V domains shown)
VH: EVQLKQSGPGLVAPSQSLSITCTVSGFGLSIYSVHWVRQPPGKGLEWLGMIWGGGSSDYNSALKSRLSISKDNSKSQVFLKMNSLQTDDTAMYYCARNGNFYAMDYWGQGTSVTVSS
VL: QIVLTQSPAIMSASLGERVTMTCTASSSVSSSFLHWYQQKPGSSPQLWIYSTSNLASGVPARFSGSGSGTSYSLTISSMEAEDAATYYCHQYHHSPYIYTFGGGTKLEIK
B8: KB001 mouse Fab FASEBA VH Y106W (Fab, V domains shown)
VH: EVQLKQSGPGLVAPSQSLSITCTVSGFSLSIYSVHWVRQPPGKGLEWLGMIWGGGSSDYNSALKSRLSISKDNSKSQVFLKMNSLQTDDTAMYYCARNGNFYAMDWWGQGTSVTVSS
VL: QIVLTQSPAIMSASLGERVTMTCTASSSVSSSFLHWYQQKPGSSPQLWIYSTSNLASGVPARFSGSGSGTSYSLTISSMEAEDAATYYCHQYHHSPYIYTFGGGTKLEIK
B9: KB001 mouse Fab FASEBA VH L29P (Fab, V domains shown)
VH: EVQLKQSGPGLVAPSQSLSITCTVSGFSPSIYSVHWVRQPPGKGLEWLGMIWGGGSSDYNSALKSRLSISKDNSKSQVFLKMNSLQTDDTAMYYCARNGNFYAMDYWGQGTSVTVSS
VL: QIVLTQSPAIMSASLGERVTMTCTASSSVSSSFLHWYQQKPGSSPQLWIYSTSNLASGVPARFSGSGSGTSYSLTISSMEAEDAATYYCHQYHHSPYIYTFGGGTKLEIK
B10: KB001 mouse Fab FASEBA VH Y106S (Fab, V domains shown)
VH: EVQLKQSGPGLVAPSQSLSITCTVSGFSLSIYSVHWVRQPPGKGLEWLGMIWGGGSSDYNSALKSRLSISKDNSKSQVFLKMNSLQTDDTAMYYCARNGNFYAMDSWGQGTSVTVSS
VL: QIVLTQSPAIMSASLGERVTMTCTASSSVSSSFLHWYQQKPGSSPQLWIYSTSNLASGVPARFSGSGSGTSYSLTISSMEAEDAATYYCHQYHHSPYIYTFGGGTKLEIK
B11: KB001 mouse Fab FASEBA VH S28R (Fab, V domains shown)
VH: EVQLKQSGPGLVAPSQSLSITCTVSGFRLSIYSVHWVRQPPGKGLEWLGMIWGGGSSDYNSALKSRLSISKDNSKSQVFLKMNSLQTDDTAMYYCARNGNFYAMDYWGQGTSVTVSS
VL: QIVLTQSPAIMSASLGERVTMTCTASSSVSSSFLHWYQQKPGSSPQLWIYSTSNLASGVPARFSGSGSGTSYSLTISSMEAEDAATYYCHQYHHSPYIYTFGGGTKLEIK
B12: KB001 mouse Fab FASEBA VH S28H (Fab, V domains shown)
VH: EVQLKQSGPGLVAPSQSLSITCTVSGFHLSIYSVHWVRQPPGKGLEWLGMIWGGGSSDYNSALKSRLSISKDNSKSQVFLKMNSLQTDDTAMYYCARNGNFYAMDYWGQGTSVTVSS
VL: QIVLTQSPAIMSASLGERVTMTCTASSSVSSSFLHWYQQKPGSSPQLWIYSTSNLASGVPARFSGSGSGTSYSLTISSMEAEDAATYYCHQYHHSPYIYTFGGGTKLEIK
B13: KB001 mouse Fab FASEBA VH S28A (Fab, V domains shown)
VH: EVQLKQSGPGLVAPSQSLSITCTVSGFALSIYSVHWVRQPPGKGLEWLGMIWGGGSSDYNSALKSRLSISKDNSKSQVFLKMNSLQTDDTAMYYCARNGNFYAMDYWGQGTSVTVSS
VL: QIVLTQSPAIMSASLGERVTMTCTASSSVSSSFLHWYQQKPGSSPQLWIYSTSNLASGVPARFSGSGSGTSYSLTISSMEAEDAATYYCHQYHHSPYIYTFGGGTKLEIK
B14: KB001 mouse Fab FASEBA VH Y106K (Fab, V domains shown)
VH: EVQLKQSGPGLVAPSQSLSITCTVSGFSLSIYSVHWVRQPPGKGLEWLGMIWGGGSSDYNSALKSRLSISKDNSKSQVFLKMNSLQTDDTAMYYCARNGNFYAMDKWGQGTSVTVSS
VL: QIVLTQSPAIMSASLGERVTMTCTASSSVSSSFLHWYQQKPGSSPQLWIYSTSNLASGVPARFSGSGSGTSYSLTISSMEAEDAATYYCHQYHHSPYIYTFGGGTKLEIK
B15: KB001 mouse Fab FASEBA VH S28L (Fab, V domains shown)
VH: EVQLKQSGPGLVAPSQSLSITCTVSGFLLSIYSVHWVRQPPGKGLEWLGMIWGGGSSDYNSALKSRLSISKDNSKSQVFLKMNSLQTDDTAMYYCARNGNFYAMDYWGQGTSVTVSS
VL: QIVLTQSPAIMSASLGERVTMTCTASSSVSSSFLHWYQQKPGSSPQLWIYSTSNLASGVPARFSGSGSGTSYSLTISSMEAEDAATYYCHQYHHSPYIYTFGGGTKLEIK
B16: KB001 mouse Fab FASEBA VH S28N (Fab, V domains shown)
VH: EVQLKQSGPGLVAPSQSLSITCTVSGFNLSIYSVHWVRQPPGKGLEWLGMIWGGGSSDYNSALKSRLSISKDNSKSQVFLKMNSLQTDDTAMYYCARNGNFYAMDYWGQGTSVTVSS
VL: QIVLTQSPAIMSASLGERVTMTCTASSSVSSSFLHWYQQKPGSSPQLWIYSTSNLASGVPARFSGSGSGTSYSLTISSMEAEDAATYYCHQYHHSPYIYTFGGGTKLEIK
B17: KB001 mouse Fab FASEBA VH L29V (Fab, V domains shown)
VH: EVQLKQSGPGLVAPSQSLSITCTVSGFSVSIYSVHWVRQPPGKGLEWLGMIWGGGSSDYNSALKSRLSISKDNSKSQVFLKMNSLQTDDTAMYYCARNGNFYAMDYWGQGTSVTVSS
VL: QIVLTQSPAIMSASLGERVTMTCTASSSVSSSFLHWYQQKPGSSPQLWIYSTSNLASGVPARFSGSGSGTSYSLTISSMEAEDAATYYCHQYHHSPYIYTFGGGTKLEIK
B18: KB001 mouse Fab FASEBA VH G26D (Fab, V domains shown)
VH: EVQLKQSGPGLVAPSQSLSITCTVSDFSLSIYSVHWVRQPPGKGLEWLGMIWGGGSSDYNSALKSRLSISKDNSKSQVFLKMNSLQTDDTAMYYCARNGNFYAMDYWGQGTSVTVSS
VL: QIVLTQSPAIMSASLGERVTMTCTASSSVSSSFLHWYQQKPGSSPQLWIYSTSNLASGVPARFSGSGSGTSYSLTISSMEAEDAATYYCHQYHHSPYIYTFGGGTKLEIK
B19: KB001 mouse Fab FASEBA VH L29T (Fab, V domains shown)
VH: EVQLKQSGPGLVAPSQSLSITCTVSGFSTSIYSVHWVRQPPGKGLEWLGMIWGGGSSDYNSALKSRLSISKDNSKSQVFLKMNSLQTDDTAMYYCARNGNFYAMDYWGQGTSVTVSS
VL: QIVLTQSPAIMSASLGERVTMTCTASSSVSSSFLHWYQQKPGSSPQLWIYSTSNLASGVPARFSGSGSGTSYSLTISSMEAEDAATYYCHQYHHSPYIYTFGGGTKLEIK

Several values for one entry are separate records, joined by “and”; a condition that tells them apart may be missing. Identical values can stand only once.

The target of this assay is HRgpA-6H (Porphyromonas gingivalis) (UniProt P28784). Put plainly: ELISA on coated HRgpA-6H. A general note: ELISA stands for enzyme-linked immunosorbent assay.
Chain of UniProt P28784 (P28784 228-991 limits assumed): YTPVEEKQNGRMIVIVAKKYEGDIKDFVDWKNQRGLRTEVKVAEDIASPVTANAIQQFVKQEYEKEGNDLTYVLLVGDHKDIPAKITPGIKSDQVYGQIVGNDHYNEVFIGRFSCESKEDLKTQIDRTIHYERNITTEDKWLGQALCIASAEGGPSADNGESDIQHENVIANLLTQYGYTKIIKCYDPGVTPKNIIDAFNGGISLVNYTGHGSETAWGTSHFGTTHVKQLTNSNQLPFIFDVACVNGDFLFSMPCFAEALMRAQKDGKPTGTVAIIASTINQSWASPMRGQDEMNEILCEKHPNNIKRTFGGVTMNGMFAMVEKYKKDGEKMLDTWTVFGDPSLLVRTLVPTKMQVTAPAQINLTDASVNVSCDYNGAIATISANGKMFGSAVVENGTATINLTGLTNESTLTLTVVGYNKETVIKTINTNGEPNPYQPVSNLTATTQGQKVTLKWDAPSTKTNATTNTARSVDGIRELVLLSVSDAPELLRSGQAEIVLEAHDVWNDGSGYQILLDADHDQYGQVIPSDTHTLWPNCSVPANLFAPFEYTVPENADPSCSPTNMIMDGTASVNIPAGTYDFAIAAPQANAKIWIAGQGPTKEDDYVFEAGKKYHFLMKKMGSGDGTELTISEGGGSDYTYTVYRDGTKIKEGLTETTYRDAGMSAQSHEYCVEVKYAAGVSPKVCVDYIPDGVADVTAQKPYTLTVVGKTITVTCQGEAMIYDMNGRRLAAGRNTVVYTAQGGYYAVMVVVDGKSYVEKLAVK
On to B1, for which the OD450nm was 0.792 and the Ratio OD(Variant)/OD(WT) stood at 1.03.
Taken in the same sequence, the figures for B2 were 0.792 and 1.03.
With B3, the OD450nm was 0.47 and 0.483; the Ratio OD(Variant)/OD(WT) was 0.932 and 0.957.
As to B4, the OD450nm was 0.437 and the Ratio OD(Variant)/OD(WT) was found to be 0.809.
On to B5, for which the OD450nm was determined as 0.445 and the Ratio OD(Variant)/OD(WT) turned out to be 0.876.
For B6, the OD450nm turned out to be 0.481 and the Ratio OD(Variant)/OD(WT) was 0.953.
With B7, the OD450nm is 0.468 and 0.486; the Ratio OD(Variant)/OD(WT) was 0.867 and 0.9.
Consider B8, for which the OD450nm was 0.791 and 0.809 and 0.82; the Ratio OD(Variant)/OD(WT) was 1.03 and 1.05 and 1.07.
As to B9, the OD450nm was 0.468 and the Ratio OD(Variant)/OD(WT) is 0.867.
As for B10, the OD450nm is 0.852 and 0.849; the Ratio OD(Variant)/OD(WT) was 1.11 and 1.1.
Consider B11, for which the OD450nm was 0.458 and the Ratio OD(Variant)/OD(WT) came to 0.848.
Consider B12, for which the OD450nm was 0.511 and 0.526; the Ratio OD(Variant)/OD(WT) is 0.946 and 0.974.
In the case of B13, the OD450nm is 0.488 and the Ratio OD(Variant)/OD(WT) came out at 0.904.
For the molecule B14, the OD450nm was 0.807 and the Ratio OD(Variant)/OD(WT) was 1.05.
In the case of B15, the OD450nm is 0.435 and 0.468; the Ratio OD(Variant)/OD(WT) is 0.806 and 0.867.
Consider B16, for which the OD450nm came to 0.53 and the Ratio OD(Variant)/OD(WT) worked out at 0.981.
On to B17, for which the OD450nm worked out at 0.446 and the Ratio OD(Variant)/OD(WT) was determined as 0.826.
B18: the OD450nm was 0.47 and 0.481; the Ratio OD(Variant)/OD(WT) was 0.925 and 0.947.
As to B19, the OD450nm is 0.502 and 0.512 and 0.501; the Ratio OD(Variant)/OD(WT) is 0.93 and 0.948 and 0.928.
